Measured values from patent US20230302104.

Experiments:
[1] = molecular target: AAT (alpha1-antitrypsin; preparation not stated in Example 15), P01009
[2] = molecular target: rhAAT (recombinant alpha1-antitrypsin, preparations not specified per panel)

Sequence of AAT (alpha1-antitrypsin; preparation not stated in Example 15), P01009 (P01009 whole entry, looked up): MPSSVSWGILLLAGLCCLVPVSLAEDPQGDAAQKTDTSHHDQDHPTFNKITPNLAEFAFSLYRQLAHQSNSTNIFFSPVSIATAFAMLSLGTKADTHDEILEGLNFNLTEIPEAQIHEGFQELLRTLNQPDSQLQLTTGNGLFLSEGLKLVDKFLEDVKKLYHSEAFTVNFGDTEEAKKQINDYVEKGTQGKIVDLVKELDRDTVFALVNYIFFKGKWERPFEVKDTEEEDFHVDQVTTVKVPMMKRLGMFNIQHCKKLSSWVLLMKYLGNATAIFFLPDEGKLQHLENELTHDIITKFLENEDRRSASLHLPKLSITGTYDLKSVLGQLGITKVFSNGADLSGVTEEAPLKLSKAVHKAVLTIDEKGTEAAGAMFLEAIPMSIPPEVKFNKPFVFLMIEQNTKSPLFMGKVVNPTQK

Row | Protein | TMPRSS2 protease activity (cleavage of Boc-QAR-AMC peptide, fluorescence, Vmax) [1] | neutrophil elastase protease activity, MeOSuc-AAPV-pNA substrate assay (Vmax, % of untreated); AAT at 1 nM and 10 nM [2]
1 | TMPRSS2 recombinant protein (creative biomart) (protein) WKFMGSKCSNSGIECDSSGTCINPSNWCDGVSHCPGGEDENRCVRLYGPNFILQVYSSQRKSWHPVCQDDWNENYGRAACRDMGYKNNFYSSQGIVDDSGSTSFMKLNTSAGNVDIYKKLYHSDACSSKAVVSLRCIACGVNLNSSRQSRIVGGESALPGAWPWQVSLHVQNVHVCGGSIITPEWIVTAAHCVEKPLNNPWHWTAFAGILRQSFMFYGAGYQVEKVISHPNYDSKTKNNDIALMKLQKPLTFNDLVKPVCLPNPGMMLQPEQLCWISGWGATEEKGKTSEVLNAAKVLLIETQRCNSRYVYDNLITPAMICAGFLQGNVDSCQGDSGGPLVTSKNNIWWLIGDTSWGSGCAKAYRPGVYGNVMVFTDWIYRQMRADG | AAT inhibits TMPRSS2 protease activity | –
2 | purified human neutrophil elastase (ELA2) (protein) IVGGRRARPHAWPFMVSLQLRGGHFCGATLIAPNFVMSAAHCVANVNVRAVRVVLGAHNLSRREPTRQVFAVQRIFENGYDPVNLLNDIVILQLNGSATINANVQVAQLPAQGRRLGNGVQCLAMGWGLLGRNRGIASVLQELNVTVVTSLCRRSNVCTLVRGRQAGVCFGDSGSPLVCNGLIHGIASFVRGGCASGLYPDAFAPVAQFVNWIDSIIQ | – | AAT and rhAAT inhibits neutrophil elastase protease activity
